# Experimental data from US20240409645A1 (DUALYX, published 2024).
# T1: human IL-2Rβ (human, UniProt P14784 27-240, limits assumed)
# T1 construct: Recombinant protein, coated (ELISA) or immobilised on CM5 (SPR); also called hu IL-2R; interleukin 2 receptor β-chain
# T1 sequence: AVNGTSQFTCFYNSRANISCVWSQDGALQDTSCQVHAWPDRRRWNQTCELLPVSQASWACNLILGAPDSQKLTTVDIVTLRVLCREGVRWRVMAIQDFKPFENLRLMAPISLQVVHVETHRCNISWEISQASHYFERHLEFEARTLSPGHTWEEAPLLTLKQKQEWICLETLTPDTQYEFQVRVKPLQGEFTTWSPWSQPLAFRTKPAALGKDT
# Experiments:
# human IL-2Rβ [1] = target: T1, human IL-2Rβ; test: SPR (Biacore), P.E. off-rate ranking
# human IL-2Rβ [2] = target: T1, human IL-2Rβ; test: P.E. binding ELISA on coated protein
# Procedure: In a binding ELISA, human or mouse IL-2Rα, IL-2Rβ and IL-2Rγ proteins were coated directly on maxisorp microtiter plates overnight at 4° C. Free binding sites were blocked using 4% Marvel in PBS for 1 hour. Next, 1:5 dilution of P.E. in 1% Marvel/PBS were added to wells and incubated for 1 hour. […] Binding specificity was determined based on O.D. at 450 nm values compared to negative controls.
Binder,koff (human IL-2Rβ [1]),P.E. binding ELISA OD (human IL-2Rβ [2])
"FJ1427_P035MP02F11 (VHH, soluble VHH in periplasmic extract; also called clone nr) VHH: EVQLVESGGGLVQAGGSLRLSCAASGRDFSSYAMGWFRQAPGKEREFVVAITWTKRSTDFPDSVKGRFTISRDNAKNTVYLDMNSLKPEDTAVYYCASARGLPVTPLGDIIYWGEGTLVTVSS",0.000686 s⁻¹,0.33 OD450 nm
"FJ1427 P035MP03F07 (VHH, soluble VHH in periplasmic extract; also called clone nr) VHH: QVQLVESGGGLVQAGGSLRLSCAASGRTFSSYVMGWFRQAPGKEREFVVAITGTRRTTDWPDSVKGRFTISRDNAQNTVYLDMNSLKPEDTAVYYCASARGLPVPPLGDIIHWGEGTLVTVSS",0.00126 s⁻¹,0.156 OD450 nm
"FJ1427_P035MP02G11 (VHH, soluble VHH in periplasmic extract; also called clone nr) VHH: QLQLVESGGGLVQAGGSLRLSCAASGRDFSSYAMGWFRQAPGKEREFVVAITWTKRSTDFPDSVKGRFTISRDNAKNTVYLDMNSLKPEDTAVYYCASARGLPVTPLGDIIYWGEGTLVTVSS",0.000708 s⁻¹,0.429 OD450 nm
"FJ1427 P035MP03C10 (VHH, soluble VHH in periplasmic extract; also called clone nr) VHH: QVQLVESGGGLVQAGGSLRLSCAASGRTFSTTEMGWFRQAPGKEREFVAAITWTGRGTMYAESVEGRFTISRENAKNMVYLQMNSLKPEDTAIYYCAAARRGRAAVRSEGGYDFWGQGTQVTVSS",0.000439 s⁻¹,0.596 OD450 nm
"FJ1427_P035MP02H11 (VHH, soluble VHH in periplasmic extract; also called clone nr) VHH: EVQLVESGGGLVQAGGSLRLSCAASGRTFSTTEMGWFRQAPGKEREFVAAITWTGRGTMYAESVEGRFTISRENAKNMVYLQMNSLKPEDTAIYYCAAARRGRAAVRSEGGYDFWGQGTQVAVSS",0.000773 s⁻¹,0.795 OD450 nm
"FJ1427 P035MP02A12 (VHH, soluble VHH in periplasmic extract; also called clone nr) VHH: QVQLQESGGGLVQAGGSLRLSCAVSGRSFRNYVMGWFRQAPGREREIVAGITQFTSTTYYDDSVKGRFTISRDNAKNTVYLQMNSLKPEDTALYYCAADRSIKMTADWAYWGQGTQVTVSS",0.00451 s⁻¹,0.182 OD450 nm
"FJ1427 P035MP02B12 (VHH, soluble VHH in periplasmic extract; also called clone nr) VHH: QVQLVESGGGLVQAGGSLRLSCAASGRADSNAIMAWFRQAPGKEREFIVAVTYSGMPTYQDDSVQGRFTASRDNAKNTVYLQMNSLKPEDTAVYYCAARMYSASTYYGDYDYWGQGTQVTVSS",0.000716 s⁻¹,1.25 OD450 nm
"FJ1427_P035MP02C12 (VHH, soluble VHH in periplasmic extract; also called clone nr) VHH: EVQLVESGGGSVQAGGSLRLSCAASGRTFSDYTMGWFRQAPGKEREFVVAITGTGHTTDMPDSVEGRFTISRDNAKNTIYLDMKNLKPGDTAVYYCASARGLPVTPLGDIIYWGEGTLVTVSS",0.00106 s⁻¹,0.616 OD450 nm
"FJ1427_P035MP02D12 (VHH, soluble VHH in periplasmic extract; also called clone nr) VHH: QVQLVESGGGLVQAGGSLTLSCAASGGAFSSDAKAWFRQAPGKEREFVAAITWAGRGTDYADSVKGRFTITRDNAKATVHLQMNSLKPEDTAVYYCALNPRGVIGPAFRNSNHYTYWGQGTQVTVSS",0.00144 s⁻¹,0.658 OD450 nm
"FJ1427_P035MP02E12 (VHH, soluble VHH in periplasmic extract; also called clone nr) VHH: QVQLQESGGGLVQAGGSMRLSCAASGRTFSNYVIAWFRQAPGKEREFVGAITQTGRGTFYASSVEGRFTLSRLNDQSTVYLQMNSLNPEDTGVYYCSAPRSGRAGTRNQMDYEYWGQGTQVTVSS",0.0115 s⁻¹,0.108 OD450 nm
"FJ1427 P035MP02F12 (VHH, soluble VHH in periplasmic extract; also called clone nr; 190) VHH: QLQLVESGGGLVQTGTSLRLSCAASGHTSRINAMGWFRQFPGKEREFVAAISRNGGSTVYVDSVKGRFTISRDNAKSTVYLQMNSLKPEDTAVYYCTATDAVGWTTRWMTADFGFWGQGTQVTVSS",0.00294 s⁻¹,0.628 OD450 nm
"FJ1427 P035MP03D01 (VHH, soluble VHH in periplasmic extract; also called clone nr) VHH: QVQLVESGGGLVQPGGSLGLSCAASGFTFDNYAMSWVRQAPGKGLEWVSSITGAGRGTHYADSVKGRFTISRDNAKNTLYLQMNSLKPEDTAVYYCAKYSSSTYYPPTPARGTDYRGPGTQVTVSS",0.00127 s⁻¹,0.307 OD450 nm
"FJ1427 P035MP03B01 (VHH, soluble VHH in periplasmic extract; also called clone nr) VHH: QVQLVESGGGLVQAGGSLRLSCAASGFTFSNYAMSWVRQAPGKGLEWVSSITGFGRGTDYADSVKGRFTISRDNAKNTLYLQMNSLKPEDTAVYYCARYSSSTYYPPTPARGTDYRGQGTQVTVSS",0.0011 s⁻¹,0.203 OD450 nm
"FJ1427 P035MP03D04 (VHH, soluble VHH in periplasmic extract; also called clone nr; 220) VHH: QVQLVESGGGLVQPGGSLRLSCAASGFTFSNYAMSWVRQAPGKELEWVSSITSAGRGTHYADTVKGRFTISRDNDENTLYLQMNSLEPEDTAVYYCAKYSSATYYPPTPAQGRDYRGQGTQVTVSS",0.0016 s⁻¹,0.447 OD450 nm
"FJ1427_P035MP03E06 (VHH, soluble VHH in periplasmic extract; also called clone nr) VHH: QVQLVESGGGLVQAGRSLGLSCAASGFTFDNYAMSWVRQAPGKGLEWVSSITGAGRGTHYADSVKGRFTISRDNAKNTLYLQMNSLKPEDTAVYYCAKYSSSTYYPPTPARGTDYRGPGTQVTVSS",0.00116 s⁻¹,0.299 OD450 nm
"FJ1427_P035MP03F02 (VHH, soluble VHH in periplasmic extract; also called clone nr) VHH: QVQLVESGGGLVQPGGSLRLSCAASGFTFSNYAMSWVRQAPGKGLEWVSSITGAGRGTYYADSVKGRFTISRDNDKNTLYLQMNSLKPEDTAVYYCAKYDSSTYYPPTPARGIADRGQGIQVTVSS",0.00191 s⁻¹,0.113 OD450 nm
"FJ1427_P035MP03H04 (VHH, soluble VHH in periplasmic extract; also called clone nr) VHH: QVQLVESGGGLVQAGGSLALSCAASGGTFSSYAMGWFRQAPGKEREFVAATTRGGGRTMYAVSTEGRFSCSRDNAKNTVYLLIKNLKPEDTAVYYCAARTSYYDGTYYPASSDFDIWGQGTQVTVSS",0.000431 s⁻¹,0.262 OD450 nm
"FJ1427 P035MP03C04 (VHH, soluble VHH in periplasmic extract; also called clone nr) VHH: EVQLVESGGGLVQAGASLELSCAASGGTFSSYAMGWFRQAPGKEREFVAATTRGGGRTMYAVSTEGRFSCSRDNAKNTVNLLIKNLKPEDTAVYYCAARTSYYDGTYYPASSDFDIWGQGTQVTVSS",0.000307 s⁻¹,0.395 OD450 nm
"FJ1427 P035MP03E01 (VHH, soluble VHH in periplasmic extract; also called clone nr) VHH: QVQLVESGGGLVQAGGSLRLSCAASGGTFSSYAMGWFRQAPGKEREFVAATTRGGGRTMYAVSTEGRFTCSRDNAKNTVYLLMNSLKPEDTAVYYCAAMTSYYSGTYYPDSSDFDIWGQGTQVTVSS",0.000323 s⁻¹,0.329 OD450 nm
"FJ1427 P035MP03H05 (VHH, soluble VHH in periplasmic extract; also called clone nr) VHH: QLQLVESGGGLVQAGGSLALSCAASGGTFSSYAMGWFRQAPGKEREFVAATTRGGGRTMYAVSTEGRFSCSRDNAKNTVYLLIKNLKPEDTAVYYCAARTSYYDGTYYPASSDFDIWGQGTQVTVSS",0.000772 s⁻¹,0.316 OD450 nm
"FJ1427_P035MP03A02 (VHH, soluble VHH in periplasmic extract; also called clone nr) VHH: QVQLVESGGGLVQAGGSLRLSCAASGGTFSSYAMGWFRQAPGKEREFVAATTRGGGRTMYAVSTEGRFTCSRDNAENTVYLQMNSLKPEDTAIYYCAAMTSYYSGTYYPDSSDFDIWGQGTQVTVSS",0.00104 s⁻¹,0.28 OD450 nm
"FJ1427_P035MP03G01 (VHH, soluble VHH in periplasmic extract; also called clone nr) VHH: EVQLVESGGGLVQAGGSLRLSCAASGGTFSSYAMGWFRQAPGKEREFVAATTRGGGRTMYAVSTEGRFTCSRDNAKNTVYLLMNRVKPEDTAVYYCAARTSYYSGTYYPASSDFDIWGQGTQVTVSS",0.00058 s⁻¹,0.192 OD450 nm
"FJ1427 P035MP03C02 (VHH, soluble VHH in periplasmic extract; also called clone nr) VHH: QVQLVESGGGLVQVGDSLRLSCAASGRTVGSANMGWFRQAPGKEREFVAVITWSTGSTVYADSVKGRFTISRDNAKNTVYLDMSSLKPEDTAVYYCAADVYPYSGNLNIMDYWGKGTLVTVSS",0.00159 s⁻¹,0.828 OD450 nm
"FJ1427_P035MP03B02 (VHH, soluble VHH in periplasmic extract; also called clone nr) VHH: EVQLVESGGGLVQVGDSLRLSCAASGRTVGSANMGWFRQAPGKEREFVAVITWSTGSTVYADSVKGRFTISRDNAKNTVYLDMSSLKPDDTAVYYCAADVYPYSGNLNIMDYWGKGTLVTVSS",0.00241 s⁻¹,0.529 OD450 nm
"FJ1427_P035MP03D03 (VHH, soluble VHH in periplasmic extract; also called clone nr) VHH: QVQLVESGGGLVQVGDSLRLSCAASGRTVGSANMGWFRQAPGKEREFVAVITWSTGSTVYADSVKGRFTISRDNAKNTVYLDLSSLKPEDTAVYYCAADVYPYSGNLNIMDYWGKGTQVTVSS",0.000538 s⁻¹,0.265 OD450 nm
"FJ1427_P035MP03F01 (VHH, soluble VHH in periplasmic extract; also called clone nr) VHH: QVQLVESGGGLVQVGGSLRVSCAASGRTSGDRNMGWFRQAPGKEREFVGIITWSSGSTVYADSVKGRFTISRDNAKNTVYLDMSSLKPEDTAVYYCAADYYPYSGSWNIMDYWGKGTLVTVSS",0.00447 s⁻¹,0.221 OD450 nm
"FJ1427_P035MP03H01 (VHH, soluble VHH in periplasmic extract; also called clone nr; 200) VHH: QVQLVESGGGSVQTGGSLRLSCVVSGSHFISDVMGWYRQVPGKQRELVADMADGGSAKYADSVKGRFTILRDSVKNTVTLQMSSLNPEDTGVYYCKAGLWITGRHSDYWGQGTQVTVTS",0.000365 s⁻¹,0.327 OD450 nm
"FJ1427 P035MP03A03 (VHH, soluble VHH in periplasmic extract; also called clone nr) VHH: EVQLVESGGGSVQTGGSLRLSCVVSGSHFISDVMGWYRQVPGKQRELVADMADGGSVKYGDSVKGRFTILRDSVKNTVTLQMSSLNPEDTGVYYCKAGLWITGRHFDYWGQGTQVTVTS",0.000248 s⁻¹,0.296 OD450 nm
